B1: VAB 7B9-3 (antibody, V domains shown)
VH: QVQLVQSGAEVKKPGASVKVSCKDSAYTFNRYGISWVRQAPGQGLEWMGWISAYTGNTVYAQKLQGRVTMTTDNSTSTAYMELRSLRSDDTAVYYCARDKSIFGVVRGFDYWGQGTLVTVSS
VL: EIVMTQSPVTLSLSPGERATLPCRASQSVSSSLAWYQQKAGQSPRLLIYGASTRATGIPARFSGSGSGTEFTLTISNLQSEDFAVYYCQQYNNWPLTFGGGTKVEIK
notes: Apparently tested with mouse constant region (anti-mouse IgG capture/detection)
B2: VAB 13A1-6 (antibody, V domains shown)
VH: EVQLVESGGGLVQPGRSLRLSCAASGFTFDNYAMHWVRQAPGKGLEWVSGIRWNSGSIGYADSVKGRFTISRDNAKNSLYLQMNSLRAEDTALYYCAKEGGYSGYRPGPFFDYWGQGTLVTVSS
VL: EIVMTQSPATLSVSPGERATLSCRASQSVNYNLAWYQHKPGQAPRLLIYGASTRATGIPARFSGSGSGTEFTLTISSLQSEDFAVYYCQQYNNWPLTFGGGTKVEIK

Tests used:
[1] = target: T1, monomeric hIL-4R (R&D Systems) (human, UniProt P24394 26-231); assay: SPR (BIAcore 2000); antibody captured, monomeric hIL-4R injected
T1 construct: Bought (R&D Systems); also called hIL-4R monomer
T1 sequence: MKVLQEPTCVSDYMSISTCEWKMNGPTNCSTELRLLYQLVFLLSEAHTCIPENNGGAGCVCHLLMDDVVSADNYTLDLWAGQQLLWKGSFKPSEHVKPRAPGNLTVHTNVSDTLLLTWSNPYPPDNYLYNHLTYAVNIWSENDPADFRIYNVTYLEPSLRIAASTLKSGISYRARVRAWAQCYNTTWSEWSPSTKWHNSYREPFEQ

[2] = target: T2, hIL-4R on cells (STAT6-transfected HEK293, TF1, TF1/A12) (human, UniProt P24394 26-825); assay: cell-based or functional assay
T2 sequence (looked up): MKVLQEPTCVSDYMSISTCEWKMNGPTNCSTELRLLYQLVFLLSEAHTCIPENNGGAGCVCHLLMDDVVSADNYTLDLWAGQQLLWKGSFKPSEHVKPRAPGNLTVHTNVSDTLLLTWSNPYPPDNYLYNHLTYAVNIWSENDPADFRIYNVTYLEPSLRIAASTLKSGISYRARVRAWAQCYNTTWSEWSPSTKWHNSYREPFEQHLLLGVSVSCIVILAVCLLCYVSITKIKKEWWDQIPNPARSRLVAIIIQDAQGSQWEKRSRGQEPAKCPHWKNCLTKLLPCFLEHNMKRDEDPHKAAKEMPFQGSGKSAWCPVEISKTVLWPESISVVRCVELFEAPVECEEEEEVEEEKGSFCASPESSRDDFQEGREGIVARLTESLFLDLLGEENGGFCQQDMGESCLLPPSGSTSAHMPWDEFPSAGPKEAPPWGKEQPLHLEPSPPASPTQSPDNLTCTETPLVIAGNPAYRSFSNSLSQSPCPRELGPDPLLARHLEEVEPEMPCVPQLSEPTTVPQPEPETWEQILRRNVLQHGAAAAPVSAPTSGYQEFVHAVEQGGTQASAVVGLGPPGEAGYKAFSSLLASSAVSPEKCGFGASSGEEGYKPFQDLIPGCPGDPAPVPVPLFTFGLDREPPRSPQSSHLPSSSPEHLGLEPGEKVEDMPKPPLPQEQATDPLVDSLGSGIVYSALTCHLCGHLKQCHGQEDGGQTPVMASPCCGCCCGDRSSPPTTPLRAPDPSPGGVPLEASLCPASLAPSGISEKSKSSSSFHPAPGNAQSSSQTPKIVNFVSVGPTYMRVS

[3] = target: T2, hIL-4R on cells (STAT6-transfected …); assay: cell-based or functional assay; remark: listed apart in the source
[4] = target: T3, dimeric hIL-4R-hFc (human, UniProt P24394 26-232); assay: SPR; reduction of hIL-4 (50 nM) binding to captured hIL-4R-hFc after antibody; competitor hIL-4
T3 construct: also called hIL-4R-Fc; not shown: human Fc (hFc)
T3 sequence: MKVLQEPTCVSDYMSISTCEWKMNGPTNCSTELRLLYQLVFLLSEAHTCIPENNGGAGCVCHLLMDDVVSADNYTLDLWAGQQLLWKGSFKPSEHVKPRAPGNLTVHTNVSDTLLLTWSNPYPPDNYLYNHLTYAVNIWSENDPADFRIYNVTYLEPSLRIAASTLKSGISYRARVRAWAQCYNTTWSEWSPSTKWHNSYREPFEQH
From the text: Purified hIL-4R-hFc molecules were captured by goat anti-human IgG polyclonal antibody immobilized on CM-5 to a density of 260 RU, to prepare a receptor-coated surface.

[5] = target: T4, mouse IL-4R (mouse, UniProt P16382 26-233, limits assumed); assay: binding affinity test of Example 2 (method not restated)
T4 sequence (looked up): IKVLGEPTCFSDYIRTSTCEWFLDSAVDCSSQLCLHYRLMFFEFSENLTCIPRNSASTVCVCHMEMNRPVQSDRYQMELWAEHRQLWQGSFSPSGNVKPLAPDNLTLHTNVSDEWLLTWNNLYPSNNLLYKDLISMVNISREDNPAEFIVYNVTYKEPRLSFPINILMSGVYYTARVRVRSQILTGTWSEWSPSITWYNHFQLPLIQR

[6] = target: T3, dimeric hIL-4R-hFc; assay: SPR (BIAcore 2000); antibody captured, dimeric hIL-4R-hFc injected
[7] = target: T3, dimeric hIL-4R-hFc; assay: ELISA; antibody titrated against 25 pM hIL-4R-Fc, free receptor caught on hIL-4 plate
[8] = target: T5, hIL-4R (human, UniProt P24394 26-232); assay: screen of hybridoma conditioned media
T5 construct: also called human IL-4 receptor; antigen
T5 sequence (looked up): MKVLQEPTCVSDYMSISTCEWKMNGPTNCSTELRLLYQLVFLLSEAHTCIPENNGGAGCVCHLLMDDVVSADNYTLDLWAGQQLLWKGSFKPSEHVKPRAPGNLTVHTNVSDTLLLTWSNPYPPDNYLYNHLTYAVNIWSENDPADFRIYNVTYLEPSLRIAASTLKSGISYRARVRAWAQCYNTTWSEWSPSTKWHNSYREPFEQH

| Binder | Kd [1] | T1/2 monomeric [1] | STAT6 Bioassay IC50 (HEK293 STAT6 luciferase, 40 pM hIL-13) [2] | STAT6 Bioassay IC50 (HEK293 STAT6 luciferase, 10 pM hIL-4) [3] | TF1/A12 Bioassay IC50 (proliferation, 20 pM hIL-4) [3] | % Inhibition (BIAcore) [4] | binding result [5] | Kd [6] | T1/2 dimeric [6] | IC50 [7] | binding result [8] |
| --- | --- | --- | --- | --- | --- | --- | --- | --- | --- | --- | --- |
| B1 | 1.01 nM | 13 min | 1.1 nM | 3.4 nM | 8.2 nM | 96% | no binding | 0.052 nM | 6.1 h | 0.059 nM |  |
| B2 |  |  |  |  |  |  |  |  |  |  | binds |

— patent publication US20080160035A1 (Regeneron, published 2008)
